Consider 3 molecules from patent publication US20240343811A1 (SHANDONG SIMCERE BIOPHARMACUTICAL, published 2024).

In assay [1] the target is T1, human CD16a (158F), full length, on FlpinCHO cells (human, UniProt P08637 17-254). The experiment in a line: FACS, biotinylated antibody.
Target sequence in this assay (P08637 17-254 limits assumed): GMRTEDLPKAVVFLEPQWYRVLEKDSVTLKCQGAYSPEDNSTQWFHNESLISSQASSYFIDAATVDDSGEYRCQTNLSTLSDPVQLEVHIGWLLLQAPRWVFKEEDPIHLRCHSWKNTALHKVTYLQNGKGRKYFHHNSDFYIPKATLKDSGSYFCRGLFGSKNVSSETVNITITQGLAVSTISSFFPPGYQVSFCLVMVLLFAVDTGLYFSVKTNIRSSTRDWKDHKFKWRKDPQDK
Assay [2] addresses T2, human CD16a (158V), full length, on cells (human, UniProt P08637 17-254).
T2 construct: also used as target for the bought Jurkat-NFAT reporter line stably expressing human CD16a (158V); also called FlpinCHO-human CD16a (158V); FlpinCHO-CD16a (158V)
The experiment in a line: FACS, biotinylated antibody.
Target sequence in this assay (P08637 17-254 F176V limits assumed): as the sequence (P08637 17-254 limits assumed) above, with F160V counted along it

Assay [3] addresses T1, human CD16a (158F), full length, on …. The experiment in a line: FACS on FlpinCHO cells. Summed up:
(§1)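 EC50 comes from fitted concentration–MFI curves. Antibody dilutions were bound to the cells for 1 hour on ice in PBS blocking buffer with 2% BSA, followed by washing and flow cytometric readout.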

The target in assay [4] is T2, human CD16a (158V), full length, on …. The experiment in a line: FACS on FlpinCHO cells. Summed up:
as §1

In a further assay the target is T3, Human CD16a (158F)-his (human).
T3 construct: entry holds ECD, AVI tag, linker and His tag
Nature of the assay: SPR (Biacore), antibody captured on Protein A. An outline of the steps:
(§2)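 Protein A–captured antibody was probed with CD16-his ECD in HBS-EP+ at 25 °C: five 2-fold dilutions from 200 nM, 240 s at 30 μL/min, dissociation up to 600 s. Glycine pH 1.5 regenerated the chip. Apparent KD came from a double-referenced 1:1 Langmuir fit.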

The target in a further assay is T4, Human CD16b (NA1)-his (human).
T4 construct: entry holds ECD, linker, His tag and AVI tag
T4 chain: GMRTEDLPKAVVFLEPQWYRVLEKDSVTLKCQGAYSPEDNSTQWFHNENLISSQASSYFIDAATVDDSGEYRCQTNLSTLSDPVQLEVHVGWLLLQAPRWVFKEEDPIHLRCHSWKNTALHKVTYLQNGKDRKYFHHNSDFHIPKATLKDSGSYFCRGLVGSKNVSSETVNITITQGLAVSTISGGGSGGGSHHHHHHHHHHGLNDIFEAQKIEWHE
The experiment in a line: SPR (Biacore), antibody captured on Protein A. Summed up: as §2

The target of a further assay is T5, Human CD16a (158V)-his (human).
T5 construct: entry holds ECD, AVI tag, linker and His tag
Nature of the assay: SPR (Biacore), antibody captured on Protein A. An outline of the steps: as §2

Assay [5] has as its target T6, human CD16b (NA2), full length, on FlpinCHO cells (human, UniProt O75015 17-200).
T6 construct: also called FlpinCHO-human CD16b (NA2)
T6 chain: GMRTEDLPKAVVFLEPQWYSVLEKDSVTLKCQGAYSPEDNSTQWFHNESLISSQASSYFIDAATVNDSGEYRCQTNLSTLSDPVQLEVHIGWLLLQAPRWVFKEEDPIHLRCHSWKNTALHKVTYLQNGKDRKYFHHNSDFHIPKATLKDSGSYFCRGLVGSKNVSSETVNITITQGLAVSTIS
The experiment in a line: FACS on FlpinCHO cells. Summed up: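 EC50 values come from fitted MFI curves measured by FACS. Antibody dilutions were bound for 1 hour on ice to CD16b-transfected FlpinCHO cells suspended in PBS with 2% BSA blocking solution.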

B1: VHH11 VHH-Fc antibody (Fc fusion)
chain: EVQVVESGGGLAQAGGSLRLSCAVSGITFSSYAMGWYRQDPGKQRELVAAINRFGLTNYADSVKGRFTISRDNAKNTVYLQMTSLKPEDTAVYYCNTGGVYSHPNYYTGTYWGQGTQVTVSSEPKSSDKTHTCPPCPAPEFEGGPSVFLFPPKPKDTLMISRTPEVTCVVVAVSHEDPEVKFNWYVDGVEVHNAKTKPREEQYNSTYRVVSVLTVLHQDWLNGKEYKCKVSNKALPAPIEKTISKAKGQPREPQVYTLPPSREEMTKNQVSLTCLVKGFYPSDIAVEWESNGQPENNYKTTPPVLDSDGSFFLYSKLTVDKSRWQQGNVFSCSVMHEALHNHYTQKSLSLSPGK
As for B1, the EC50 in assay [1] was found to be 0.2 nM; in assay [2], 0.36 nM; in assay [3], 0.28 nM; in assay [4], 0.33 nM; in assay [5] it was 1.43 nM. The “Maximum mean fluorescence intensity” value in assay [1] worked out at 7240; in assay [2] it was 10700; in assay [3] it was 5670; in assay [4], 6240; in assay [5], 56900. Moreover, the Kd with Human CD16a (158F)-his was found to be 42.9 nM; in the assay with Human CD16b (NA1)-his it was 6010 nM; with Human CD16a (158V)-his, 32 nM. The koff amounted to 0.0235 s⁻¹ with Human CD16a (158F)-his, 0.259 s⁻¹ with Human CD16b (NA1)-his and 0.0491 s⁻¹ with Human CD16a (158V)-his. In addition, the kon in the assay with Human CD16a (158F)-his was found to be 548000 M⁻¹ s⁻¹; with Human CD16b (NA1)-his it was 43100 M⁻¹ s⁻¹; with Human CD16a (158V)-his, 1.53e+06 M⁻¹ s⁻¹.

B2: VHH12 VHH-Fc antibody (Fc fusion)
chain: QVQLVESGGGLVQAGGSLRLSCAASGITFSSYAMGWYRQAPGKQRELVAAINRFGLTNYADFVKGRFTISRVNAKNTVYLQMTSLKPEDTAVYYCNTGGVYSHPDYYTGTYWGQGTQVTVSSEPKSSDKTHTCPPCPAPEFEGGPSVFLFPPKPKDTLMISRTPEVTCVVVAVSHEDPEVKFNWYVDGVEVHNAKTKPREEQYNSTYRVVSVLTVLHQDWLNGKEYKCKVSNKALPAPIEKTISKAKGQPREPQVYTLPPSREEMTKNQVSLTCLVKGFYPSDIAVEWESNGQPENNYKTTPPVLDSDGSFFLYSKLTVDKSRWQQGNVFSCSVMHEALHNHYTQKSLSLSPGK
For B2, the EC50 in assay [1] came out at 0.12 nM; in assay [2] it was 0.16 nM; in assay [3], 0.16 nM; in assay [4], 0.21 nM; in assay [5], 0.96 nM. Further, the “Maximum mean fluorescence intensity” value in assay [1] is 5410; in assay [2] it was 7950; in assay [3], 6090; in assay [4], 6680; in assay [5], 79100. Further, the Kd in the assay with Human CD16a (158F)-his came to 13.3 nM; in the assay with Human CD16b (NA1)-his it was 1500 nM; in the assay with Human CD16a (158V)-his, 10.8 nM. Moreover, the koff with Human CD16a (158F)-his was 0.0117 s⁻¹; with Human CD16b (NA1)-his, 0.154 s⁻¹; with Human CD16a (158V)-his it was 0.0201 s⁻¹. Also, the kon with Human CD16a (158F)-his was determined as 878000 M⁻¹ s⁻¹; with Human CD16b (NA1)-his, 103000 M⁻¹ s⁻¹; with Human CD16a (158V)-his it was 1.86e+06 M⁻¹ s⁻¹.

B3: VHH06 VHH-Fc antibody (Fc fusion)
chain: EVQLVESGGGLVQAGGSLRLSCVASGSTWTTYAVRWYRQAPGKQREWVAFISVDGSTNYPDSVKGRFIVSRDNAKNTVYLQMNSLKPEDTADYICRVGGQYWGQGTQVTVSSEPKSSDKTHTCPPCPAPEFEGGPSVFLFPPKPKDTLMISRTPEVTCVVVAVSHEDPEVKFNWYVDGVEVHNAKTKPREEQYNSTYRVVSVLTVLHQDWLNGKEYKCKVSNKALPAPIEKTISKAKGQPREPQVYTLPPSREEMTKNQVSLTCLVKGFYPSDIAVEWESNGQPENNYKTTPPVLDSDGSFFLYSKLTVDKSRWQQGNVFSCSVMHEALHNHYTQKSLSLSPGK
For B3, the EC50 in assay [1] came out at 0.39 nM; in assay [2] it was 0.79 nM; in assay [3], 0.58 nM; in assay [4], 0.66 nM. Further, the “Maximum mean fluorescence intensity” value came out at 9740 in assay [1]; 13300 in assay [2]; 7070 in assay [3]; 8110 in assay [4]; 1930 in assay [5]. Also, the Kd amounted to 5.84 nM with Human CD16a (158F)-his, 8.63 nM with Human CD16b (NA1)-his and 1.96 nM with Human CD16a (158V)-his. In addition, the koff in the assay with Human CD16a (158F)-his came out at 0.000374 s⁻¹; with Human CD16b (NA1)-his it was 0.00113 s⁻¹; with Human CD16a (158V)-his, 0.000213 s⁻¹. Also, the kon in the assay with Human CD16a (158F)-his is 64000 M⁻¹ s⁻¹; in the assay with Human CD16b (NA1)-his, 130000 M⁻¹ s⁻¹; with Human CD16a (158V)-his, 109000 M⁻¹ s⁻¹. Also, the binding result in assay [5] is “no binding (tested: 100 nM)”.
